Experimental data as given in patent publication US20260022171A1 (23ANDME, published 2026).

T1: hu-CD200R1-iso1-Ref ECD (human)
T1 chain: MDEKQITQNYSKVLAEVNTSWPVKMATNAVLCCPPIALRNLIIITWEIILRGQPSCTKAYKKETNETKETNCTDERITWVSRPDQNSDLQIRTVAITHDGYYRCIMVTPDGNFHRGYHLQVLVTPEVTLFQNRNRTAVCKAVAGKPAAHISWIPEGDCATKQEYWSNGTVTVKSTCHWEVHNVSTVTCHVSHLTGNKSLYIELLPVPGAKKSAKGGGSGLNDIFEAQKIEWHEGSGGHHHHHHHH

T2: hu-CD200R1-iso4-Alt ECD (human)
T2 construct: also called isoform 4 alt
T2 chain: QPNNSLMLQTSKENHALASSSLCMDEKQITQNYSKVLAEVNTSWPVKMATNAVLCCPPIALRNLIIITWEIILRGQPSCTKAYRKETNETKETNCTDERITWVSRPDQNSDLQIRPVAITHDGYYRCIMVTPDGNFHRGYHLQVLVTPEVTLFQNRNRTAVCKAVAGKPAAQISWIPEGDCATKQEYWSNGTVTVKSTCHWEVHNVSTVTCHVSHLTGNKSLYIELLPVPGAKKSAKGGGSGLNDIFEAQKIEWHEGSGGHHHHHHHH

T3: hu-CD200R1-iso1-Alt ECD (human)
T3 chain: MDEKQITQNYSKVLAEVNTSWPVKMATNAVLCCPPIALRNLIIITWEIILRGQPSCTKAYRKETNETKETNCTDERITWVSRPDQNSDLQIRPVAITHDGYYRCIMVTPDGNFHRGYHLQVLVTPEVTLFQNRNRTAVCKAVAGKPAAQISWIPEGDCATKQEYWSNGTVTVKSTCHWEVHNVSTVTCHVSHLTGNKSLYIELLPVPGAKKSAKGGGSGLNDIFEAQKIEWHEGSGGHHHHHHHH

T4: hu-CD200R1-iso4-Ref ECD (human)
T4 chain: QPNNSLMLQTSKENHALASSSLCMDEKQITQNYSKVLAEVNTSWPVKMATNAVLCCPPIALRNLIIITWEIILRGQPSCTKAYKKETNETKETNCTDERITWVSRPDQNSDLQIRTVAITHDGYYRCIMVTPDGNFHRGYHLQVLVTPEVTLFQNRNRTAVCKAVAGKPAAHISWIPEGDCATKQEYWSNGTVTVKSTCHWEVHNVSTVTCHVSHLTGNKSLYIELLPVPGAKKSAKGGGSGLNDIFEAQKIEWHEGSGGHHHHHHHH

B1: cyno-CD200R1 ECD (receptor)
chain: AAQSNNSLMLQTSKENHTLASNSLCMDEKQITQNHSKVLAEVNISWPVQMARNAVLCCPPIEFRNLIVITWEIILRGQPSCTKTYRKDTNETKETNCTDERITWVSTPDQNSDLQIHPVAITHDGYYRCIMATPDGNFHRGYHLQVLVTPEVTLFESRNRTAVCKAVAGKPAAQISWIPAGDCAPTEQEYWGNGTVTVKSTCHWEGHNVSTVTCHVSHLTGNKSLYIELLPVPGAKKSAKLGGGSGLNDIFEAQKIEWHEGSGGHHHHHHHH
notes: also called cynomolgus monkey CD200R1; MfCD200R1 (recombinant)

Key:
[1] = target: T5, cyno-CD200-Fc (cynomolgus monkey); test: ELISA: biotinylated MfCD200R1 (0.12 ug/ml) on plate-immobilised Fc-tagged MfCD200, HRP-streptavidin, OD450
T5 construct: also called MfCD200-Fc; Fc-tagged MfCD200
T5 sequence (chain, as listed by the source limits assumed): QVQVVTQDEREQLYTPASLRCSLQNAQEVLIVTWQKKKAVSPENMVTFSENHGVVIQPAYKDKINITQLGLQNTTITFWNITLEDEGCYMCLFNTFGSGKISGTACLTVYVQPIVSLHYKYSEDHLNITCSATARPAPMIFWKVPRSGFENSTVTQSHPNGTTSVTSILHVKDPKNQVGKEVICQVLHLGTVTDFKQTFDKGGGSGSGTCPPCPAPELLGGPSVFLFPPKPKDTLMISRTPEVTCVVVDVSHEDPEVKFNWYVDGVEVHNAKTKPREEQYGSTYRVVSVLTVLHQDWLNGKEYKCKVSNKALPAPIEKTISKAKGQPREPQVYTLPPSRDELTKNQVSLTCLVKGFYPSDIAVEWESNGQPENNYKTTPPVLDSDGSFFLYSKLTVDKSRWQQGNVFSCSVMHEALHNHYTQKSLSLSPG
Method: (§1) Binding was evaluated by incubating with HRP-streptavidin and colorimetric substrate, followed by monitoring the OD450 in each well.

[2] = target: T1, hu-CD200R1-iso1-Ref ECD; test: blocking ELISA; biotin-CD200R1 + antibody dilutions on coated hu-CD200-Fc
Method: (§2) After removing the coating solution, unspecific binding was blocked with PBS containing 1% bovine serum albumin (BSA) and incubation at room temperature for one hour. Plates were then washed five times in PBS with 0.05% TWEEN®-20 (wash buffer).

[3] = target: T2, hu-CD200R1-iso4-Alt ECD; test: as above
Method: as §2

[4] = target: T3, hu-CD200R1-iso1-Alt ECD; test: as above
Method: as §2

[5] = target: T4, hu-CD200R1-iso4-Ref ECD; test: as above
Method: as §2

[6] = target: T1, hu-CD200R1-iso1-Ref ECD; test: SPR Biacore 8K 37C; biotin-CD200R1 captured, antibody analyte
Method: (§3) For kinetics measurements, 3 nM biotinylated human CD200R1. […] The sensorgram was recorded and subject to reference and buffer subtraction before evaluating by BIACORE® 8K Evaluation Software (version 1.1.1.7442).
(§4) Association rates (kₒₙ) and dissociation rates (koff) were calculated using a simple one-to-one Langmuir binding model. The equilibrium dissociation constant (KD) was calculated as the ratio of koff/kₒₙ.

[7] = target: T2, hu-CD200R1-iso4-Alt ECD; test: as above
Method: as §3, §4

[8] = target: T3, hu-CD200R1-iso1-Alt ECD; test: as above
Method: as §3, §4

[9] = target: T4, hu-CD200R1-iso4-Ref ECD; test: as above
Method: as §3, §4

[10] = target: B1; test: blocking ELISA; biotin-cyno-CD200R1 + antibody dilutions on coated cyno-CD200-Fc
[11] = target: B1; test: Biacore, binding to MfCD200R1
[12] = target: T2, hu-CD200R1-iso4-Alt ECD; test: SPR Biacore 8K 37C; antibody on Protein A chip, CD200R1 analyte;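 note: sensorgrams corrected by subtracting reference and buffer signals, then analysed with Biacore 8K Evaluation Software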
Method: (§5) The sensorgram was recorded and subject to reference and buffer subtraction before evaluation by BIACORE®8K Evaluation Software (version 1.1.1.7442). Association rates (kₒ₀) and dissociation rates (koff) were calculated using a simple one-to-one Langmuir binding model.

[13] = target: T4, hu-CD200R1-iso4-Ref ECD; test: as above
Method: as §5

[14] = target: B1; test: as above
Method: as §5

[15] = target: T4, hu-CD200R1-iso4-Ref ECD; test: blocking ELISA; biotin-hu-CD200R1 + antibody dilutions on coated hu-CD200-Fc
Method: as §2

[16] = target: B1; test: blocking ELISA, MfCD200R1 to immobilized MfCD200
Method: as §1

[17] = target: B1; test: SPR binding affinity to recombinant MfCD200R1

IC50 [10] | Kd [13] | koff [13] | kon [13] | Kd [14] | koff [14] | kon [14] | IC50 [15] | Binder | Kd [12] | koff [12] | kon [12] | also measured
– | – | – | – | – | – | – | – | B1 | – | – | – | binding result [1]: binds
– | – | – | – | – | – | – | – | h22.1 (humanized 22.1 IgG) (antibody, V domains shown) VH: EVQLVQSGAEVKKPGASVKVSCKASGYTFTSYVMFWVRQAPGQRLEWIGYINPYNDDTKYNEKFKGRATLTSDKSASTAYMELSSLRSEDTAVYYCAREDYYGSRFVYWGQGTLVTVSS VL: DIQLTQSPSSLSASVGDRVTITCRASKSVSTSGYSYMHWYQQKPGKPPKLLIYLASNLESGVPSRFSGSGSGTDFTLTISSLQPEDFATYYCQHNRELLTFGGGTKVEIKR | – | – | – | IC50 [2]: 5.86 nM; IC50 [3]: 4.59 nM; IC50 [4]: 7.45 nM; IC50 [5]: 5.32 nM; Kd [6]: 0.501 nM; koff [6]: 0.00151 s⁻¹; kon [6]: 3.02e+06 M⁻¹ s⁻¹; Kd [7]: 1.92 nM; koff [7]: 0.00116 s⁻¹; kon [7]: 604000 M⁻¹ s⁻¹; Kd [8]: 0.535 nM; koff [8]: 0.00166 s⁻¹; kon [8]: 3.11e+06 M⁻¹ s⁻¹; Kd [9]: 1.92 nM; koff [9]: 0.00115 s⁻¹; kon [9]: 598000 M⁻¹ s⁻¹
2.44 nM | 0.716 nM | 0.000964 s⁻¹ | 1.35e+06 M⁻¹ s⁻¹ | 10.5 nM | 0.00457 s⁻¹ | 436000 M⁻¹ s⁻¹ | 0.58 nM | h10F6.V1 (antibody, IgG1, V domains shown, differs by 3 residues in the heavy chain CDRs and 1 in the light chain CDRs; also called surrogate antibody) VH: EVQLQESGPGLVKPSETLSLTCTVSGFSLTNYRVSWVRQPPGKGLEWLGVMYAGGGTNYNSVFKSRLTISKDNSKNQVSLKLSSVTAADTAVYYCARERPLTGVMDNWGQGTLVTVSS VL: DIVLTQSPDSLAVSLGERATINCRASESVDYSGNSFMHWFQQKPGQPPKLLIYRASNLESGIPDRFSGSGSRTDFTLTISSLQAEDVAVYYCHQSNWDPPTFGGGTKVEIKR | 0.814 nM | 0.00117 s⁻¹ | 1.44e+06 M⁻¹ s⁻¹ | Kd [11]: 2.63 nM; IC50 [16]: 2.45 nM; Kd [17]: 2.63 nM
2.15 nM | 8.93 nM | 0.00336 s⁻¹ | 377000 M⁻¹ s⁻¹ | 5.87 nM | 0.00113 s⁻¹ | 193000 M⁻¹ s⁻¹ | 10.9 nM | h10F6.V4 (antibody, IgG1, V domains shown, IgG1 variant of h10F6) VH: EVQLQESGPGLVKPSETLSLTCTVSGFSLTNYWVSWVRQPPGKGLEWLGTMWAGGGTNYNSVFKSRLTISKDNSKNQVSLKLSSVTAADTAVYYCARERPLTGPMDYWGQGTLVTVSS VL: DIVLTQSPDSLAVSLGERATINCRASESVDYSGNSFMHWFQQKPGQPPKLLIYRASNLESGIPDRFSGSGSRTDFTLTISSLQAEDVAVYYCHQSNWDPPTFGGGTKVEIKR | 9.99 nM | 0.00387 s⁻¹ | 388000 M⁻¹ s⁻¹ | –
11.4 nM | 0.817 nM | 0.00153 s⁻¹ | 1.88e+06 M⁻¹ s⁻¹ | 60.7 nM | 0.0195 s⁻¹ | 322000 M⁻¹ s⁻¹ | 0.56 nM | h10F6.V3 (antibody, IgG1, V domains shown, IgG1 variant of h10F6) VH: EVQLQESGPGLVKPSETLSLTCTVSGFSLTNYRVSWVRQPPGKGLEWLGVMYAGGGTNYNSVFKSRLTISKDNSKNQVSLKLSSVTAADTAVYYCARERPLTGVMDNWGQGTLVTVSS VL: DIVLTQSPDSLAVSLGERATINCRASESVDYSGNSFMHWFQQKPGQPPKLLIYRASNLESGIPDRFSGSGSRTDFTLTISSLQAEDVAVYYCHQSNEDPPTFGGGTKVEIKR | 0.935 nM | 0.00191 s⁻¹ | 2.04e+06 M⁻¹ s⁻¹ | –
4.25 nM | 6.04 nM | 0.00367 s⁻¹ | 607000 M⁻¹ s⁻¹ | 16.3 nM | 0.00351 s⁻¹ | 216000 M⁻¹ s⁻¹ | 4.79 nM | h10F6.V2 (antibody, IgG1, V domains shown, IgG1 variant of h10F6) VH: EVQLQESGPGLVKPSETLSLTCTVSGFSLTNYWVSWVRQPPGKGLEWLGTMWAGGGTNYNSVFKSRLTISKDNSKNQVSLKLSSVTAADTAVYYCARERPLTGPMDYWGQGTLVTVSS VL: DIVLTQSPDSLAVSLGERATINCRASESVDYSGNSFMHWFQQKPGQPPKLLIYRASNLESGIPDRFSGSGSRTDFTLTISSLQAEDVAVYYCHQSNEDPPTFGGGTKVEIKR | 6.68 nM | 0.00425 s⁻¹ | 635000 M⁻¹ s⁻¹ | –
